Results reported in US20180140742A1.

Key:
[1] = target: oriented collagen tube (Porcine Skin Collagen type I) (porcine); test: depletion assay: tube immersed in fusion protein solution in phosphate buffer; bound = added minus amount left in the supernatant
[2] = target: oriented collagen tube (Porcine Skin Collagen type I) (porcine); test: depletion assay: tube immersed in fusion protein solution in phosphate buffer; bound = added minus amount left in the supernatant; told of the other added amounts

bFGF-PKD-CBD fusion protein
binding amount (when 10 µg added) [1]: 9 µg | protein binding rate [2]: 90%
